From publication PMC11894141 (EMBO Reports, 2025)

Biological target: T1, recombinant GST-tagged HSC70 (wild type) (human, UniProt P11142-1 1-646)
T1 construct: HSC70, human HSPA8 cDNA in pGEX-6P-1; also called GST-HSC70; GST-HSC70 WT; source: BL21-Rosetta E. coli, purified (Glutathione Sepharose 4 Fast Flow, eluted with reduced glutathione)
Experiment: pull-down; Strep-tagged CSN held on Streptactin Sepharose, HSC70 at a 1:5 ratio, room temperature; with or without 5 µM NR peptide; Coomassie or immunoblot
Details: both partners purified

T1 sequence (P11142 whole entry): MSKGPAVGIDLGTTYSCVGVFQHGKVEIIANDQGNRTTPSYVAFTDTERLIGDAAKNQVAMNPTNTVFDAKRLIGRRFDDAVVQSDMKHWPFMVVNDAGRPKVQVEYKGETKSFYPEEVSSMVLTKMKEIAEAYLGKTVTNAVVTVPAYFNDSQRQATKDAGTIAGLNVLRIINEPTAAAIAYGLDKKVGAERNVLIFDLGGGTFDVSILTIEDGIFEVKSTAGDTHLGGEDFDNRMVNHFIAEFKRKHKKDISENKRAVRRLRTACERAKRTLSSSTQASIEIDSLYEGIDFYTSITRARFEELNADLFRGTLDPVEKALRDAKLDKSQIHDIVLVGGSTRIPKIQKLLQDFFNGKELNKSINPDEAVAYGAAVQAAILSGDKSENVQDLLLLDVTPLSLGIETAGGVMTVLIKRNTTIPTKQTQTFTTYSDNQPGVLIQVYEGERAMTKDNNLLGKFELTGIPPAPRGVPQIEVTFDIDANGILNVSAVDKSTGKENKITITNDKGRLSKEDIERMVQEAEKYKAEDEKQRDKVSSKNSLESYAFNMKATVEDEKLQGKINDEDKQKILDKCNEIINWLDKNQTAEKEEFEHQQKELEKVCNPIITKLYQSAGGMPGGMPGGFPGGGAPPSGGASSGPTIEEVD

binding result: binds
B1: NR peptide (an HSC70 model substrate) (peptide)
peptide: NRLLLTGC
notes: NR peptide, HSC70 model substrate (Xu et al, 2012)
